Assay results as given in article PMC3447985.

Legend:
Assay in all cases: SEC
[1] = biological target: Human apolipoprotein E4 W264C (human) (UniProt P02649)
[2] = biological target: Human apolipoprotein E4 S290C (human) (UniProt P02649)
[3] = biological target: Human apolipoprotein E4 S94C (human) (UniProt P02649)

Human apolipoprotein E4 W264C (from UniProt P02649 19-317) (natural protein)
stoichiometry N [1]: 4

Human apolipoprotein E4 S290C (from UniProt P02649 19-317) (natural protein)
stoichiometry N [2]: 4

Human apolipoprotein E4 S94C (from UniProt P02649 19-317) (natural protein)
stoichiometry N [3]: 4
